In the supplement of paper PMC9112550, “Optimization of the antimicrobial peptide Bac7 by deep mutational scanning” (BMC Biology, 2022):

Test system: Escherichia coli TOP10
Assay: shrunken log2 fold change of peptide-encoding DNA abundance (4.5 h post-induction vs induction); higher = less antimicrobial activity (less host growth inhibition)
Conditions: time post-induction: 4.5 h; library: site-saturation at positions 5, 18, 19, 20
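Also: peptides expressed intracellularly from a pBAD plasmid library in pooled LB shake-flask culture, induced with 0.3% L-arabinose, DNA abundance read by NGS, three biological replicates, DESeq2 with apeglm shrinkage.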

| Sequence | shrunken log2 fold change |
| --- | --- |
| RRIRARPPRLPRPRPRPFPGPRP | -0.116 |
| RRIRVRPPRLPRPRPRPKSNPRP | -0.206 |
| RRIRFRPPRLPRPRPRPMEDPRP | -0.015 |
| RRIRKRPPRLPRPRPRPIQYPRP | -0.193 |
| RRIRTRPPRLPRPRPRPMPAPRP | 0.102 |
| RRIRIRPPRLPRPRPRPEWLPRP | -0.216 |
| RRIRSRPPRLPRPRPRPSEAPRP | 0.121 |
| RRIRTRPPRLPRPRPRPDGIPRP | -0.00822 |
| RRIRTRPPRLPRPRPRPWCWPRP | -0.0632 |
| RRIRGRPPRLPRPRPRPTDVPRP | 0.307 |
| RRIRHRPPRLPRPRPRPSMPPRP | -0.0929 |
| RRIRRRPPRLPRPRPRPFKCPRP | -0.135 |
| RRIRQRPPRLPRPRPRPWPSPRP | 0.168 |
| RRIRLRPPRLPRPRPRPHYCPRP | -0.0889 |
| RRIRHRPPRLPRPRPRPDFSPRP | -0.0123 |
| RRIRARPPRLPRPRPRPLVTPRP | 0.178 |
| RRIRMRPPRLPRPRPRPMYHPRP | -0.0178 |
| RRIRYRPPRLPRPRPRPFDSPRP | -0.0136 |
| RRIRCRPPRLPRPRPRPYCIPRP | -0.565 |
| RRIRWRPPRLPRPRPRPQQPPRP | 0.383 |
| RRIRRRPPRLPRPRPRPKWAPRP | 0.0296 |
| RRIRNRPPRLPRPRPRPHATPRP | 0.00661 |
| RRIRERPPRLPRPRPRPTNWPRP | 0.0202 |
| RRIRGRPPRLPRPRPRPMMNPRP | 0.159 |
| RRIRHRPPRLPRPRPRPGTEPRP | -0.0642 |

| Sequence | shrunken log2 fold change |
| --- | --- |
| RRIRERPPRLPRPRPRPHYRPRP | 0.05 |
| RRIRWRPPRLPRPRPRPNMVPRP | -0.0148 |
| RRIRVRPPRLPRPRPRPLHFPRP | -0.346 |
| RRIRRRPPRLPRPRPRPWLLPRP | 0.0822 |
| RRIRTRPPRLPRPRPRPFPEPRP | -0.41 |
| RRIRYRPPRLPRPRPRPWNAPRP | -0.397 |
| RRIRVRPPRLPRPRPRPVGSPRP | 0.289 |
| RRIRARPPRLPRPRPRPPSDPRP | 0.705 |
| RRIRFRPPRLPRPRPRPWADPRP | -0.168 |
| RRIRPRPPRLPRPRPRPRWDPRP | -0.0161 |
| RRIRIRPPRLPRPRPRPYFGPRP | -0.0455 |
| RRIRARPPRLPRPRPRPDSQPRP | 0.0999 |
| RRIRERPPRLPRPRPRPSYCPRP | -0.715 |
| RRIRTRPPRLPRPRPRPMFVPRP | -0.215 |
| RRIRWRPPRLPRPRPRPNCWPRP | 0.533 |
| RRIRCRPPRLPRPRPRPDYEPRP | -0.373 |
| RRIRYRPPRLPRPRPRPTMKPRP | -0.285 |
| RRIRYRPPRLPRPRPRPCRTPRP | -0.651 |
| RRIRYRPPRLPRPRPRPKYLPRP | 0.00379 |
| RRIRPRPPRLPRPRPRPTVAPRP | 0.277 |
| RRIRCRPPRLPRPRPRPHKMPRP | -0.593 |
| RRIRLRPPRLPRPRPRPEPGPRP | 0.35 |
| RRIRERPPRLPRPRPRPVCWPRP | 0.337 |
| RRIRERPPRLPRPRPRPAKSPRP | 0.0676 |
| RRIRFRPPRLPRPRPRPMVCPRP | -0.0374 |

| Sequence | shrunken log2 fold change |
| --- | --- |
| RRIRLRPPRLPRPRPRPVACPRP | 0.0944 |
| RRIRLRPPRLPRPRPRPPYVPRP | -0.0415 |
| RRIRYRPPRLPRPRPRPREHPRP | -0.00116 |
| RRIRNRPPRLPRPRPRPCAFPRP | -0.071 |
| RRIRARPPRLPRPRPRPPLTPRP | 0.536 |
| RRIRARPPRLPRPRPRPICAPRP | 0.799 |
| RRIRRRPPRLPRPRPRPLHKPRP | -0.191 |
| RRIRHRPPRLPRPRPRPAVHPRP | 0.0645 |
| RRIRYRPPRLPRPRPRPATEPRP | 0.0247 |
| RRIRYRPPRLPRPRPRPRTYPRP | -0.71 |
| RRIRKRPPRLPRPRPRPYNLPRP | -0.119 |
| RRIRFRPPRLPRPRPRPGKCPRP | -0.421 |
| RRIRKRPPRLPRPRPRPHYIPRP | -0.123 |
| RRIRIRPPRLPRPRPRPMCQPRP | 0.0317 |
| RRIRRRPPRLPRPRPRPYQTPRP | -0.071 |
| RRIRFRPPRLPRPRPRPCCEPRP | -0.414 |
| RRIRFRPPRLPRPRPRPEFKPRP | -0.0568 |
| RRIRQRPPRLPRPRPRPIIGPRP | -0.161 |
| RRIRGRPPRLPRPRPRPTHTPRP | 0.862 |
| RRIRSRPPRLPRPRPRPWFMPRP | -0.86 |
| RRIRGRPPRLPRPRPRPTQAPRP | 1.37 |
| RRIRPRPPRLPRPRPRPQYFPRP | -0.0988 |
| RRIRNRPPRLPRPRPRPMRTPRP | 0.312 |
| RRIRGRPPRLPRPRPRPTFVPRP | 0.782 |
| RRIRCRPPRLPRPRPRPAKCPRP | -0.101 |

| Sequence | shrunken log2 fold change |
| --- | --- |
| RRIRFRPPRLPRPRPRPESGPRP | 0.0504 |
| RRIRPRPPRLPRPRPRPYFTPRP | -0.882 |
| RRIRCRPPRLPRPRPRPCFAPRP | -0.162 |
| RRIRNRPPRLPRPRPRPDRRPRP | -0.115 |
| RRIRKRPPRLPRPRPRPSIGPRP | -0.0755 |
| RRIRHRPPRLPRPRPRPQPIPRP | -0.13 |
| RRIRERPPRLPRPRPRPTWIPRP | -0.268 |
| RRIRQRPPRLPRPRPRPIWRPRP | -0.068 |
| RRIRTRPPRLPRPRPRPTVFPRP | -0.14 |
| RRIRQRPPRLPRPRPRPSSEPRP | 0.0507 |
| RRIRPRPPRLPRPRPRPMHFPRP | 0.015 |
| RRIRERPPRLPRPRPRPSTAPRP | -0.151 |
| RRIRARPPRLPRPRPRPVMTPRP | -0.00766 |
| RRIRWRPPRLPRPRPRPVPLPRP | 0.00691 |
| RRIRERPPRLPRPRPRPYRAPRP | 0.0532 |
| RRIRSRPPRLPRPRPRPYYAPRP | -0.551 |
| RRIRIRPPRLPRPRPRPYNCPRP | -0.411 |
| RRIRSRPPRLPRPRPRPDITPRP | 0.0856 |
| RRIRTRPPRLPRPRPRPDMRPRP | -0.025 |
| RRIRQRPPRLPRPRPRPCNAPRP | 0.0357 |
| RRIRDRPPRLPRPRPRPKHCPRP | 0.0694 |
| RRIRRRPPRLPRPRPRPQWRPRP | 0.364 |
| RRIRSRPPRLPRPRPRPFKLPRP | -0.71 |
| RRIRRRPPRLPRPRPRPLIHPRP | 0.125 |
| RRIRYRPPRLPRPRPRPVFGPRP | -0.415 |

| Sequence | shrunken log2 fold change |
| --- | --- |
| RRIRDRPPRLPRPRPRPGSEPRP | 0.0708 |
| RRIRSRPPRLPRPRPRPAQMPRP | 0.437 |
| RRIRHRPPRLPRPRPRPGFRPRP | 0.237 |
| RRIRIRPPRLPRPRPRPFEYPRP | -0.709 |
| RRIRFRPPRLPRPRPRPWSDPRP | -0.159 |
| RRIRQRPPRLPRPRPRPWPGPRP | 0.116 |
| RRIRWRPPRLPRPRPRPILHPRP | 0.0591 |
| RRIRMRPPRLPRPRPRPRLCPRP | 1.66 |
| RRIRFRPPRLPRPRPRPCFAPRP | 0.153 |
| RRIRQRPPRLPRPRPRPRAYPRP | -0.0505 |
| RRIRCRPPRLPRPRPRPEVCPRP | 0.0143 |
| RRIRMRPPRLPRPRPRPPMTPRP | 0.789 |
| RRIRPRPPRLPRPRPRPCQLPRP | -0.659 |
| RRIRRRPPRLPRPRPRPEYKPRP | -0.0169 |
| RRIRDRPPRLPRPRPRPKKVPRP | 0.241 |
| RRIRRRPPRLPRPRPRPENKPRP | -0.0891 |
| RRIRRRPPRLPRPRPRPFTEPRP | -0.267 |
| RRIRLRPPRLPRPRPRPSFFPRP | -0.207 |
| RRIRMRPPRLPRPRPRPHPWPRP | 0.227 |
| RRIRVRPPRLPRPRPRPMWAPRP | 0.0354 |
| RRIRRRPPRLPRPRPRPHEKPRP | 0.0358 |
| RRIRCRPPRLPRPRPRPDYSPRP | -0.179 |
| RRIRCRPPRLPRPRPRPQHMPRP | -0.74 |
| RRIRSRPPRLPRPRPRPDLMPRP | -0.0144 |
| RRIRQRPPRLPRPRPRPAVYPRP | -0.15 |
